The values below are quoted from earlier work in publication PMC10999626.

This series addresses FcRn (Mus musculus) (UniProt Q61559). Briefly: BLI. In general terms: BLI is a label-free optical method that tracks binding on a fibre tip over time.

FcRn (Mus musculus), sequence (Q61559 22-365): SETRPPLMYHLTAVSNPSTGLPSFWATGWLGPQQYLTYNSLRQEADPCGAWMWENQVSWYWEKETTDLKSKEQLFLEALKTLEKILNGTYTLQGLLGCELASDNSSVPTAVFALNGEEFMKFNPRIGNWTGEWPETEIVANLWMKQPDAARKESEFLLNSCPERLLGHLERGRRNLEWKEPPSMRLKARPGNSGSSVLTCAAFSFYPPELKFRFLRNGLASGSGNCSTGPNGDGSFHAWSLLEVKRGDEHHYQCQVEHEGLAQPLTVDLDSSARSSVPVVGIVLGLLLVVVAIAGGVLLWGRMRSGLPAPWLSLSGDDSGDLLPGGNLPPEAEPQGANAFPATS
human IgG4, sequence (P01861 whole entry): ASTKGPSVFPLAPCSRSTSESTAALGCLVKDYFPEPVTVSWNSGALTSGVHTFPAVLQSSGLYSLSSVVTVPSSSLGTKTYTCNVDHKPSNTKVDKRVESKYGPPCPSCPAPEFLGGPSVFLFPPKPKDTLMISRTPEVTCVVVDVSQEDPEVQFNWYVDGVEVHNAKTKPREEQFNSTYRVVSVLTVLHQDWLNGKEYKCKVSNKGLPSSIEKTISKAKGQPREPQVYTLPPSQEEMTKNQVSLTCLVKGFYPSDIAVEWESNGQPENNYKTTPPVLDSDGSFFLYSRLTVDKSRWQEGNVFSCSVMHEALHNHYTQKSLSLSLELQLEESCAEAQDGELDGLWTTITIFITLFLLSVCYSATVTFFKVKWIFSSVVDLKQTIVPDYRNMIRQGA

Take human IgG4 (from UniProt P01861): the Kd is 6 nM.

The term Kd denotes a measure of binding affinity in units of concentration.
